According to the nanobody polyreactivity screen of Harvey et al. (2022):

Test: yeast display, Sf9 membrane polyspecificity reagent, FACS + sequencing; frameworks hold sequencing errors
In short: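 Galactose induction of a Saccharomyces cerevisiae BJ5465 synthetic nanobody display library ran 36–48 hours. The cells were then stained for 1 hour at 4 °C with 10% biotinylated, detergent-solubilized Sf9 membrane reagent, pulled down on streptavidin microbeads and FACS-sorted into low and high (top ~1%) gates on expression and reagent-binding fluorescence. Labels for polyreactivity follow the gate of origin.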

Sequence	polyreactivity (PSR sort gate)
QFQLVESGGGLVQAGGSLRLSCAASGFTFRRVTAIGWYRQAPGKERELVAGINSGDITYYADSVKGRFTFSRDNAKNTVYLQMNSLIPEDTAVYYCAARVVYGYGHNDYWGQGTQVTVSS	low polyreactivity
QFQLVESGGGLVQAGGSLRLSCAASGFTFYRNAMGWYRQAPGKERELVAAITSTGSTNYADSVKGRFTISRDNAKNTVYLQMNSLKPEDTAVYYCNKRRFGRQGMDYWGQGTQVTVSS	low polyreactivity
QFQLVESGGGLVQAGGSLRLSCAASGGILYRYAMGWYRPAPGKERELVAAIRWSGGSTYYADSVKGRFTISRDNAKNTVYLQMNSLKPEDTAVYYCAADVYYYHVLDFDYWGQGTQVTVSS	low polyreactivity
QFQLVESGGGLVQAGGSLRLSCAASGIIFAGNAMGWYRQAPGKERELVAVITSVGSTYYADSVTGRFTISRDNAKNTVYLQMNSLKPEDTAVYYCNAVSWWRYDYCGQGTQVTVSS	high polyreactivity
QFQLVESGGGLVQAGGSLRLSCAASGLIFAYYAMGWYRQAPGKERELVAAISWTGGSTYYADSVKGRFTISRDNAKNTVYLQMNSLKPEDTAVYYCNTVGKPGFYSWGQGTQVTVSS	high polyreactivity
QFQLVESGGGLVQAGGSLRLSCAASGLIFGAYDMGWYRQAPGKERELVAAITYSGGRTHYADSVKGRFTISRDNAKNTVYLQMNSLKPDDTAVYYCAAGSSHHFDYEGGYWGKGTQVTVSS	low polyreactivity
QFQLVESGGGLVQAGGSLRLSCAASGLIFRIYAMGWYRQAPGKEREFVAAIRWRGGSTYYADSVKGRFTISRDNAKYTVYLQMNSLKPEDTAVYYCAVRSCPYRPRLDYWGQGTQVTVSS	high polyreactivity
QFQLVESGGGLVQAGGSLRLSCAASGLILQNYVMGWYRQAPGKERELVAAITRSGGGTYYADSVKGRFTISRDNAKNTVYLQMNSLKPEDTAVYYCAAQRQYGKFDYWGQGTQVTVSS	high polyreactivity
QFQLVESGGGLVQAGGSLRLSCAASGLTFGYYAMGWYRQAPGKERELVAAITSRGGSTYYADSVKRRFTISRDNAKNTVYLQMNSLKPEDTAVYYCAARYAEYGSWGQGTQVTVSS	high polyreactivity
QFQLVESGGGLVQAGGSLRLSCAASGRIFHSNAMGWYRQAPGKERELVAAITWSTGRTYYADSVKGRFTISRDNAKNTVYLQMNSLKPEDTAVYYCFRFSYYTGDYWGQGTQVTVSS	high polyreactivity
QFQLVESGGGLVQAGGSLRLSCAASGRIFVGYAMGSYRQAPGKEMELVATISSRGGSTYYADSVKGRFTISRDNAKNTLYLQMNSLKPEDTAVYYCAAVARNNRNSRQRIPYDFWGQGTQVTVSS	high polyreactivity
QFQLVESGGGLVQAGGSLRLSCAASGRIFYKYVMGWYRQAPGKERELVAAINLSGGTTYYADSVKGRFTISRDNAKNTVYLQMNSLKPEDTAVYYCAADSFTLTHYYWGQGTQVTVSS	low polyreactivity
QFQLVESGGGLVQAGGSLRLSCAASGRIFYRNAMGWYRQAPGKERELVAAINQTGGSTYYADSVKGRFTISGDNAKNTVYLQMNSLKPDDTAVYYCAVLGQVPTGSSRRYYWGQGTQVTVSS	high polyreactivity
QFQLVESGGGLVQAGGSLRLSCAASGRIFYVYGMGWYRQAPGKERELVAAISKRGDNTYYADSVKGRFTISRDNAKNTVYLQMNSLKPEDTAVYYCNVKRYGGRSDYWGQGTQVTVSS	high polyreactivity
QFQLVESGGGLVQAGGSLRLSCAASGRIFYYNAMGWYRQAPGKERELVAAITGGGSTNYADSVKGRFTISRDNAKNTVYLQMNSLKPEDTAVYYCAARHYPRNSWGYDYWGQGTQVTVSS	high polyreactivity
QFQLVESGGGLVQAGGSLRLSCAASGRTFIGYAMGWYRQAPGKERELVAAITSDGGTNYADSVKGRFTISRDNAKNTVNLQMNSQKPEDTAVYYCGARRRVSYHLYGYWGQGTQVTLSS	high polyreactivity
QFQLVESGGGLVQAGGSLRLSCAASGRTFKVYAMGCYRQAPGKERELVAAITGGGSTNYADSVKGRFTISRDNAKNTVYLQMNSLKAEDTAVYYCNARYYYRLVKWSRFSSYDFWGQGTQVTVSS	low polyreactivity
QFQLVESGGGLVQAGGSLRLSCAASGRTFYLYAMGWYRQAPGKERELVASISWNGGSTYYADSVKGLFTISRDNAKNYVYLQMNSLKPEDTAVYYCATDSHRSRLNRPYQLFPAYYYWGQGTQVTVSS	low polyreactivity
QFQLVESGGGLVQAGGSLRLSCAASGSFSGTNAMGWYRQAPGKERELVAGISYGGGSTYYADSVKGRFTISRDNAKNTVYLQMNSLKPEDTAVYYCAKYYAPYRFYYCGQGTQVTVSS	high polyreactivity
QFQLVESGGGLVQAGGSLRLSCAASGSICVLYPMGWYRQAPGKERELVAAITSGASTNYADSVKGRFTISRDNAKNTVYLQMNSQKPEDTAVYYCNTGSRLDRVDSWGQGTQLTVSS	low polyreactivity
QFQLVESGGGLVQAGGSLRLSCAASGSIFEPNAMGWYRQAPGKEREFVAAISGSGGSTYYADSVKGRFTISRDNAKNTVYLQMNSLIQEDTAVYYCATRGKRSYFRTFYYWGQGTQVTVSS	high polyreactivity
QFQLVESGGGLVQAGGSLRLSCAASGSIFGPYAMGWYRQAPGKEREFVAAISRSGTRTNFADSVKGSFTISRDSAKNTVYLQMNSLKPEDTAVYYCATAAFIVGTSRTYDYWGQGTQVTVSS	high polyreactivity

Sequence	polyreactivity (PSR sort gate)
QFQLVESGGGLVQAGGSLRLSCAASGSIFGYYAMGWYRQAPGKESELVAAISASGGTTYYADSVKGRFTISRDYAKNTVYLQMNSLKPEDTAVYYCNKLYLKPGRYYYWGQGTQVTVSS	high polyreactivity
QFQLVESGGGLVQAGGSLRLSCAASGSIFPPYVMGCYRQAPGKERELVATIDSGGSTYYADSVKGRFTISRDNAKNPVYLQINSLKPEDTAVYYCAARQVSVSVHQYGYWGQGTQVTVST	low polyreactivity
QFQLVESGGGLVQAGGSLRLSCAASGSIIPIYAMGWYRQAPGKERELVAAINRSGGSTYYADSVKGRFTISRDNAKNTVYLQMNSLKPEDTAVYYCNADYGYHNQLFWGYYGWSSDHWGQGTQVTVSS	low polyreactivity
QFQLVESGGGLVQAGGSLRLSCAASGSTFDINDMGWYRQAPGKERELVAAITTSGASTYYADSVKGRFTISRDNAKNTVYLQMNSLKPEETAVSYCAADCLSYVWYVWYDYWGQGTKVTVSS	low polyreactivity
QFQLVESGGGLVQAGGSLRLSCAASGSTFEKNAMGWYRQAPGKERDLVDAISNGVSTYYADSVKGRFTISRDNAKNSVFLQMISLKPEDTAVYFCAADLFFGAETVYYDKFDYWGQGTKVTVSS	low polyreactivity
QFQLVESGGGLVQAGGSLRLSCAASGSTFGGNAMGWYRQAPGKERELVAAIDSGGGTNYADSVKGRFTISRDNAKNTVYLQMNSLKPEDSAVYYCNADWAVRSTQNSSSGHDYWGQGTQVTVSS	low polyreactivity
QFQLVESGGGLVQAGGSLRLSCAASGSTFGYYAMGWYSQAPGKERELVAAITSTGRTKYADSVKGRFTISRDNAKNSVYLQMNSLKPEDTAVYYCAADIWGQGTQVTVSS	high polyreactivity
QFQLVESGGGLVQAGGSLRLSCAASGSTFPHYTMGWYRQAPGKERELVAAIRRSAGSTYYADSVKGRFTISRDNAKNTVYLQMNSLKPEDTAVYYCNTRQRPPYLVKLNYWGQGTQVTVSS	high polyreactivity
QFQLVESGGGLVQAGGSLRLSCAASGSTFRGYVMGWYRQAPGKERELVAAITFSSGSTYYADSVKGRFTISRDNAKNTVYLQMNSLKPEDTAVYYCAAVGPYYRDYYYWGQGTQVTVSS	high polyreactivity
QFQLVESGGGLVQAGGSLRLSCAASGSTFWVYAMGWYRQAPGKERDLVAAITFRTTSTYYADSVKGRFTISRDTAKNSVSLQLKSLIPDDNAVYFCAATEYYATEYDYWGQCTQVTVSS	low polyreactivity
QFQLVESGGGLVQAGGSLRLSCAASGSTFYPNSMGWYRQAPGKEMELVAAISSGGSTSYADSVKGRFTISRDNAKNTVYLQMNSLKPEDTAVYYCNASSPGAVPVYDYDYWGQGTQVTVSS	low polyreactivity
QFQLVESGGGLVQAGGSLRLSCAASGYIFGRYAMGWYRQPPGKERELVAAISSTGDSTYYADSVKGRFTISRDYAKNTVYLQMNSQKPEDTAVYYCNAVVPRYSYGRYYYWGQGTQVTVSS	high polyreactivity
QFQLVESGGGLVQAGGSLRLSCAATGRTFYIYSMGWYRQAPGKERELVAAITSGGSTSYADSVKGRFTISRDNAKNTVYLQMNSLKPEDTAVYYCAADQYTYWFGYDYWGQGTQVTVSS	low polyreactivity
QFQLVESGGGLVQAGGSLRLSCAAYGFTFYAYTMGWYRQAPGKERELVAAIRTGSSTYYADSVKGRFTISRDNAKNTVYLQMNSMKPQDTAVYYCAAPRWRRPYRYDYWGQGTQVTVSS	high polyreactivity
QFQLVESGGGLVQAGGSLRLSSAASGSTFYYNAMGWYRQAPGKERELVAVITSGVSTYYADSVKGRFTISRDNAKNTVYLQMNSLKPVDTAVYYCAADLYRPYEYQLDYWGHGTQVTVSS	low polyreactivity
QFQLVESGGGLVQAGGSLRLSSAPSGIIFPYYAMGWYRQAPGKERELVAAISRTGSTYYADSVKGRFTISRDNAKNTVYLQMNRLNPEVTAVYYCAARTYYSQGTSSVSLQQYGYWGEGTQVTVSS	low polyreactivity
QFQLVESGGGLVQAGGSLRVSSAASGITLPYYAMGWYRQAPGKDRELVAGISSRGGSTYYADSVKGRFTISRDNAKNTVYLQMNSLKPEDTAVYYCAAKVASTRLGPAYGYWGQGTQVTVSS	high polyreactivity
QFQLVESGGGLVQARGSLRLSCAASGRIFSWYAMGWYRQAPGKETELVAGLNRNGGSTYYPDSVKGRFTISRDNAKNTVYLQMNSQKPEDTAVYYCAKGQYYYTGDYDYWGQGTQVTVSS	high polyreactivity
QFQLVESGGGLVQARGSLRLSCAASGSTFSQYAMGWYRQAPGKERELVAAITTSDGTTNYADSVKGRFTISRDNAKNTVFLQMNILQPEDTAVYYCNNEYFYYSFGYWGQGTQVTVSS	low polyreactivity
QFQLVESGGGVVQAGGSLRLSCAASGYTFYIYARGWYRQAPWKERELVAAISWTDGSTYYADSVKGRFTISRDNAKNTVYLQMNSLKPEDTAVYYCAKTSLYAGAKEYDYWGQGTQVTVSS	low polyreactivity
QFQLVESGGRLVQAGGSLRLSCAASGFTFNRYAMGSYRQAPGKGREFVAAITRRGGSTYYADSVKGRFTISRDNAKNTVYLQMNSLKPEDTAVYYCNVKPSARGSPLYDYWGQGTQVTVSS	high polyreactivity
